# Test results: patent US20180216091A1
# B1: Listeria monocytogenes Sortase A variant C (enzyme)
# chain: ANYDKDAVVGSIAVPSVDVNLLVFKGTNTANLLAGATTMRSDQVMGKGNYPLAGHHMRDESMLFGPIMKVKKGDKIYLTDLENLYEYTVTETKTIDETEVSVIDDTKDARITLITCDKPTETTKRFVAVGELEKTEKLTKELENKYFPSKMRGSHHHHHHGS
# B2: N-terminally truncated Streptococcus pyogenes sortase A (protein)
# chain: MRGSHHHHHHGSVLQAQMAAQQLPVIGGIAIPELGINLPIFKGLGNTELIYGAGTMKEEQVMGGENNYSLASHHIFGITGSSQMLFSPLERAQNGMSIYLTDKEKIYEYIIKDVFTVAPERVDVIDDTAGLKEVTLVTCTDIEATERIIVKGELKTEYDFDKAPADVLKAFNHSYNQVST
# B3: Listeria monocytogenes Sortase A variant D (enzyme)
# chain: ANYDKDAVVGSIAVPSVDVNLLVFKGTNTANLLAGATTMRSDQVMGKGNYPLAGHHMRDESMLFGPIMKVKKGDKIYLTDLENLYEYTVTETKTIDETEVSVIDDTKDARITLITCDKPTETTKRFVAVGELEKTEKMRGSHHHHHHGS
# B4: Listeria monocytogenes Sortase A variant B (enzyme)
# chain: SVIKGAANYDKDAVVGSIAVPSVDVNLLVFKGTNTANLLAGATTMRSDQVMGKGNYPLAGHHMRDESMLFGPIMKVKKGDKIYLTDLENLYEYTVTETKTIDETEVSVIDDTKDARITLITCDKPTETTKRFVAVGELEKTEKLTKELENKYFPSKMRGSHHHHHHGS
# B5: Listeria monocytogenes Sortase A variant A (enzyme)
# chain: EKDATFDFESVQLPSMTSVIKGAANYDKDAVVGSIAVPSVDVNLLVFKGTNTANLLAGATTMRSDQVMGKGNYPLAGHHMRDESMLFGPIMKVKKGDKIYLTDLENLYEYTVTETKTIDETEVSVIDDTKDARITLITCDKPTETTKRFVAVGELEKTEKLTKELENKYFPSKMRGSHHHHHHGS
# B6: Listeria monocytogenes Sortase A variant E (enzyme)
# chain: GSIAVPSVDVNLLVFKGTNTANLLAGATTMRSDQVMGKGNYPLAGHHMRDESMLFGPIMKVKKGDKIYLTDLENLYEYTVTETKTIDETEVSVIDDTKDARITLITCDKPTETTKRFVAVGELEKTEKLTKELENKYFPSKMRGSHHHHHHGS
# Target: glucose dehydrogenase harboring a LPKTA motive
# Assay: not given
row,Binder,activity with different LPKTA concentrations
1,B1,The graphs show the higher activity of Listeria monocytogenes Sortase A variant C
2,B2,a substrate inhibition effect for St.py. SrtA at concentrations higher than 300 µM

# Target: glucose dehydrogenase containing the sortase-motif LPXTG
# Assay: cell-based or functional assay
row,Binder,maximum dE/min [dE/min]
1,B3,0.044
2,B1,0.113
3,B4,0.026
4,B5,0.037
5,B6,0.019
